Results on four molecules are retold here after patent publication US20150118286A1.

The target in test [1] is Human tyrosinase (human), P14679. Kind of test: cell-based or functional assay.
Test [2] concerns the target Mushroom tyrosinase (mushroom), C7FF04. Kind of test: cell-based or functional assay.

Sequence of Human tyrosinase (human), P14679 (P14679 19-529): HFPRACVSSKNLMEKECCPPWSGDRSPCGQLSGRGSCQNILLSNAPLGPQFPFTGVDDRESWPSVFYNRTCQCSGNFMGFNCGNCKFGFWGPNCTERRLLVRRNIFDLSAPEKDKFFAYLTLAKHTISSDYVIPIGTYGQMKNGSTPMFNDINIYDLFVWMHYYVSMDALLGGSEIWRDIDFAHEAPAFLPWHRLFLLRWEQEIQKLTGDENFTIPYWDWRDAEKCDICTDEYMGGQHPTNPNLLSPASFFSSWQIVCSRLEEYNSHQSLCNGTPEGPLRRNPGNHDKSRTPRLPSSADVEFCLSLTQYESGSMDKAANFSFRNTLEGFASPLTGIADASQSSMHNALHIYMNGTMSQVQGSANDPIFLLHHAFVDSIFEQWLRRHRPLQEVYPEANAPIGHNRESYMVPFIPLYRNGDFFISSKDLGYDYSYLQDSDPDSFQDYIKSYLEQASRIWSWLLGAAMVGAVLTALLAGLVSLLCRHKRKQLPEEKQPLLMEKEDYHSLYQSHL

In test [1], RRWWRRYY [P16 peptide] came in with a reduction of total melanin content in MNTI cells (3 days, peptide at twice the IC50) of 45%.

Turning to RRRYWYYR [P17 peptide], the reduction of total melanin content in MNTI cells (3 days, peptide at twice the IC50) in test [1] amounted to 38%.

Consider RRFVCC (modifications not checked) [P15 peptide], for which the IC50 [µM], mushroom tyrosinase inhibition (dopachrome OD 475 nm, L-tyrosine substrate) in test [2] came out at 1120 µM.

As for RRYWYWRR [P18 peptide], in test [1], the reduction of total melanin content in MNTI cells (3 days, peptide at twice the IC50) turned out to be 41%.
